B1: PVR-Fc (Fc fusion, human, UniProt P15151 21-343, looked up)
chain: WPPPGTGDVVVQAPTQVPGFLGDSVTLPCYLQVPNMEVTHVSQLTWARHGESGSMAVFHQTQGPSYSESKRLEFVAARLGAELRNASLRMFGLRVEDEGNYTCLFVTFPQGSRSVDIWLRVLAKPQNTAEVQKVQLTGEPVPMARCVSTGGRPPAQITWHSDLGGMPNTSQVPGFLSGTVTVTSLWILVPSSQVDGKNVTCKVEHESFEKPQLLTVNLTVYYPPEVSISGYDNNWYLGQNEATLTCDARSNPEPTGYNWSTTMGPLPPFAVAQGAQLLIRPVDKPINTTLICNVTNALGARQAELTVQVKEGPPSEHSGISRN
notes: PVR (CD155, Necl-5), human, soluble form fused to Fc; Probably the extracellular domain; also called CD155; Necl-5; source: COS cells, transfected, purified from supernatants on Affi-Gel protein A
B2: Nec2-Fc (Fc fusion, human, UniProt Q92692 32-360, looked up)
chain: QDVRVQVLPEVRGQLGGTVELPCHLLPPVPGLYISLVTWQRPDAPANHQNVAAFHPKMGPSFPSPKPGSERLSFVSAKQSTGQDTEAELQDATLALHGLTVEDEGNYTCEFATFPKGSVRGMTWLRVIAKPKNQAEAQKVTFSQDPTTVALCISKEGRPPARISWLSSLDWEAKETQVSGTLAGTVTVTSRFTLVPSGRADGVTVTCKVEHESFEEPALIPVTLSVRYPPEVSISGYDDNWYLGRTDATLSCDVRSNPEPTGYDWSTTSGTFPTSAVAQGSQLVIHAVDSLFNTTFVCTVTNAVGMGRAEQVIFVRETPNTAGAGATGG
notes: Nectin-2 (CD112), human, soluble form fused to Fc; Probably the extracellular domain; also called Nectin-2; CD112; source: COS cells, transfected, purified from supernatants on Affi-Gel protein A
B3: Nec1-Fc (Fc fusion, human, UniProt Q15223 31-355, looked up)
chain: QVVQVNDSMYGFIGTDVVLHCSFANPLPSVKITQVTWQKSTNGSKQNVAIYNPSMGVSVLAPYRERVEFLRPSFTDGTIRLSRLELEDEGVYICEFATFPTGNRESQLNLTVMAKPTNWIEGTQAVLRAKKGQDDKVLVATCTSANGKPPSVVSWETRLKGEAEYQEIRNPNGTVTVISRYRLVPSREAHQQSLACIVNYHMDRFKESLTLNVQYEPEVTIEGFDGNWYLQRMDVKLTCKADANPPATEYHWTTLNGSLPKGVEAQNRTLFFKGPINYSLAGTYICEATNPIGTRSGQVEVNITEFPYTPSPPEHGRRAGPVPTA
notes: Nectin-1 (CD111), human, soluble form fused to Fc; Probably the extracellular domain; also called Nectin-1; CD111; source: COS cells, transfected, purified from supernatants on Affi-Gel protein A

The target of this test is T1, soluble Nectin-3 (Nec3-Fc) (human, UniProt Q9NQS3 58-404, biotin (the soluble copy in the in vitro binding assay: 'Biotinylated Nec3-Fc')).
T1 construct: Nectin-3 (CD113), human, recombinant soluble form fused to Fc; Probably the extracellular domain; Biotinylated as analyte in the ELISA, not biotinylated when captured in the ELISA or used on cells; also called CD113; source: COS cells, transfected, purified from supernatants on Affi-Gel protein A
T1 sequence (Q9NQS3 58-404): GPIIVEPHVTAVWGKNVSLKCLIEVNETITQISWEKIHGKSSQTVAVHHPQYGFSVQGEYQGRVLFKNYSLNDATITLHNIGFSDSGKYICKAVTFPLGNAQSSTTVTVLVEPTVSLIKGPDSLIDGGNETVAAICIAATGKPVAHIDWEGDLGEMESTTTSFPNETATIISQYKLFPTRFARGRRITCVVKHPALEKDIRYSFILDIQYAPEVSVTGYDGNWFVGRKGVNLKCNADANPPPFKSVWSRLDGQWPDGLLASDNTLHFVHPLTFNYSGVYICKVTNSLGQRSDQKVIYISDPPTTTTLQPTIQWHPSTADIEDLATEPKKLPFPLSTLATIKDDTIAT
The test can be described thus: ELISA; Fc proteins (10^-7 M) captured on wells by goat anti-human Fc, 2 h 37 °C; free anti-Fc blocked with human immunoglobulin; biotinylated Nec3-Fc (10^-7 M) incubated 2 h at 37 °C in the absence of Ca2+; streptavidin peroxidase, ABTS. The note with it: both partners purified.
For the molecule B1, the binding result is given as “binds”.

As to B2, the binding result is “binds”.

In the case of B3, the binding result is recorded as “binds”.
